Test results taken from patent US20200262888A1 (HANMI PHARM, published 2020).
Non-standard residues stand in square brackets, D forms with d. No end group written: not given here. *: point of attachment. Acetyl(2-(4-imidazolyl)) = O=C(Cc1c[nH]cn1)*

These molecules were tested against T1, human GLP-2 receptor (human, UniProt O95838 1-553) (assay: cell-based or functional assay).
T1 sequence (looked up): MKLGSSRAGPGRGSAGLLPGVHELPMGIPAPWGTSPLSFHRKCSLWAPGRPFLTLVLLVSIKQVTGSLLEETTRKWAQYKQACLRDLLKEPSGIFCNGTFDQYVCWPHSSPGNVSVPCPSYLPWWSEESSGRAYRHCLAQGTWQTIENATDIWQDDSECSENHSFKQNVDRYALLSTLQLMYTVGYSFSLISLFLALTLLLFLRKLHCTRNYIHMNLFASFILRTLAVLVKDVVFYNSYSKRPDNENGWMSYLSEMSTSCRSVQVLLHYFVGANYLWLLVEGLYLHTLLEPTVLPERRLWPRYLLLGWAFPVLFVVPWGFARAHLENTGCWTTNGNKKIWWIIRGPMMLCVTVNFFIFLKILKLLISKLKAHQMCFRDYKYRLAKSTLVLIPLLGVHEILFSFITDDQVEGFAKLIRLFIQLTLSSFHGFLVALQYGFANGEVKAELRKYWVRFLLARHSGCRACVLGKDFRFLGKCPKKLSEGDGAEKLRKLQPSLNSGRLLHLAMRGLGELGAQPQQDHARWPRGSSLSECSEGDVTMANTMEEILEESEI
In the case of Teduglutide (Gattex, Shire) (peptide), the In vitro activity compared to human GLP-2 (%) (relative titer from EC50 of cAMP accumulation, CHO-K1 cells expressing human GLP-2 receptor) is reported as 148%.
XGDGSFSDEMNTILDNLAARDFINWLIQTKITDC (position 1 is imidazoacetyldeshistidine (caH) instead of histidine) [CA GLP-2 KC] was tested, and the “In vitro activity compared to human GLP-2 (%) (relative titer from EC50 of cAMP accumulation, CHO-K1 cells expressing human GLP-2 receptor)” value was 149%.
XGDGSFSDEMNTILDNLAARDFINWLIQTKITDK (position 1 is imidazoacetyldeshistidine (caH) instead of histidine) [CA GLP-2 KK] was tested, and the “In vitro activity compared to human GLP-2 (%) (relative titer from EC50 of cAMP accumulation, CHO-K1 cells expressing human GLP-2 receptor)” value was 206%.
In the case of [Acetyl(2-(4-imidazolyl))]GDGSFSDEMNTILDNLAARDFINWLIQTRITDC [CA GLP-2 RC], the “In vitro activity compared to human GLP-2 (%) (relative titer from EC50 of cAMP accumulation, CHO-K1 cells expressing human GLP-2 receptor)” value is reported as 120%.
In the case of [Acetyl(2-(4-imidazolyl))]GDGSFSDEMNTILDNLAARDFINWLIQTRITDK [CA GLP-2 RK], the “In vitro activity compared to human GLP-2 (%) (relative titer from EC50 of cAMP accumulation, CHO-K1 cells expressing human GLP-2 receptor)” value is reported as 333%.
